Holding throughout (test): cell-based or functional assay
The target in assay [1] is T1, human GLP-1 receptor (GLP-1R) (human, UniProt P43220 24-463).
Assay [2] concerns the target human glucagon receptor (GCGR) (human, UniProt P47871 26-477).
The target of assay [3] is T1, human GLP-1 receptor (GLP-1R). This is another data set of the same source.

Where no end group is shown, it is not given here. [ ]: non-standard residue; d: D form. Formula III = not defined here; Formula II = not defined here; Aib = CC(C)(N)C(=O)O Where only a bound is given, the exact number is not on record here.

T1 sequence (P43220 24-463): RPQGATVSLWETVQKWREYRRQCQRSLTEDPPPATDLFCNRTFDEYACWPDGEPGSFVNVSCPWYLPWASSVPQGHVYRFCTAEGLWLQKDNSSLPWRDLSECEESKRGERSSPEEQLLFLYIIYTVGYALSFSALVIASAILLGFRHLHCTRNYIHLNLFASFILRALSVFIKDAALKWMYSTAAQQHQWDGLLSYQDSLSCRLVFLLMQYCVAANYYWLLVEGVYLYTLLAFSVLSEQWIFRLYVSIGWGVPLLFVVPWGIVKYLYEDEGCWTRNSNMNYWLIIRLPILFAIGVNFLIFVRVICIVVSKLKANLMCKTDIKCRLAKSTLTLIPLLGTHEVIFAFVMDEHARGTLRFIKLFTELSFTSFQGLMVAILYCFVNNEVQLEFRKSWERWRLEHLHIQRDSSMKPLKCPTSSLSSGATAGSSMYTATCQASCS

Consider YSHGTFTSDK(Formula III)SKYLDSARAQEFVKWLEDEPSSGAPPPS-NH2 (reading uncertain) [Compound B48], for which the “GLP-1R pEC 50” value in assay [1] was < 6 pEC50. Besides, the “GluR pEC 50” value in assay [2] amounted to 9.2 pEC50.

Turning to YSHGTFTSDK(Formula II)SKYLDSARAQEFVKWLEDEPSSGAPPPS-NH2 (reading uncertain) [Compound B44], the “GLP-1R pEC 50” value in assay [1] is 7.2 pEC50. In addition, the “GluR pEC 50” value in assay [2] was determined as 11.9 pEC50.

For YSHGTFTSDYSKYLDSARAQEFVK(Formula II)WLEDEPSSGAPPPS-NH2 (reading uncertain) [Compound B42], the “GLP-1R pEC 50” value in assay [1] was < 6 pEC50. Also, the “GluR pEC 50” value in assay [2] was 9.7 pEC50.

On to YSHGTFTSDYSKYLDK(Formula II)ARAQEFVKWLEDEPSSGAPPPS-NH2 (reading uncertain) [Compound B43], for which, in assay [1], the “GLP-1R pEC 50” value is < 6 pEC50. Also, in assay [2], the “GluR pEC 50” value is 11.1 pEC50.

YSHGTFTSDYSKYLDSARAQEFVK(Formula III)WLEDEPSSGAPPPS-NH2 (reading uncertain) [Compound B46]: the “GLP-1R pEC 50” value in assay [1] was < 6 pEC50. For the same molecule, the “GluR pEC 50” value in assay [2] came to 9.5 pEC50.

Consider YSHGTFTSDYTRLLESKRAQEFVKWLEDEPSSGAPPPS [Compound A98], for which the “hGLP1 pEC50 (cAMP)” value in assay [3] is < 9 pEC50.

YSQGTFTSDK(Formula III)SKYLDAARAQEFVKWLEDEPKSKSPPPS-NH2 (reading uncertain) [Compound B40]: in assay [1], the “GLP-1R pEC 50” value was determined as 7.2 pEC50. Besides, in assay [2], the “GluR pEC 50” value amounted to 11.9 pEC50.

B1: Compound A99 (peptide)
peptide: YSHGTFTSDYSKYLD[Aib]KRAQEFV[Aib]WLEDEPSSGAPPPS-OH
modifications: N-terminus assumed
SMILES: CC(C)C[C@H](NC(=O)[C@H](Cc1ccc(O)cc1)NC(=O)[C@H](CCCCN)NC(=O)[C@H](CO)NC(=O)[C@H](Cc1ccc(O)cc1)NC(=O)[C@H](CC(=O)O)NC(=O)[C@H](CO)NC(=O)[C@@H](NC(=O)[C@H](Cc1ccccc1)NC(=O)[C@@H](NC(=O)CNC(=O)[C@H](Cc1c[nH]cn1)NC(=O)[C@H](CO)NC(=O)[C@@H](N)Cc1ccc(O)cc1)[C@@H](C)O)[C@@H](C)O)C(=O)N[C@@H](CC(=O)O)C(=O)NC(C)(C)C(=O)N[C@@H](CCCCN)C(=O)N[C@@H](CCCNC(=N)N)C(=O)N[C@@H](C)C(=O)N[C@@H](CCC(N)=O)C(=O)N[C@@H](CCC(=O)O)C(=O)N[C@@H](Cc1ccccc1)C(=O)N[C@H](C(=O)NC(C)(C)C(=O)N[C@@H](Cc1c[nH]c2ccccc12)C(=O)N[C@@H](CC(C)C)C(=O)N[C@@H](CCC(=O)O)C(=O)N[C@@H](CC(=O)O)C(=O)N[C@@H](CCC(=O)O)C(=O)N1CCC[C@H]1C(=O)N[C@@H](CO)C(=O)N[C@@H](CO)C(=O)NCC(=O)N[C@@H](C)C(=O)N1CCC[C@H]1C(=O)N1CCC[C@H]1C(=O)N1CCC[C@H]1C(=O)N[C@@H](CO)C(=O)O)C(C)C
As to B1, the “hGLP1 pEC50 (cAMP)” value in assay [3] was < 9 pEC50.

B2: Compound A101 (peptide)
peptide: YGHGTFTSDHSKYLD[Aib]KRAQEFVKWLEDE-OH
modifications: N-terminus assumed
SMILES: CC(C)C[C@H](NC(=O)[C@H](Cc1c[nH]c2ccccc12)NC(=O)[C@H](CCCCN)NC(=O)[C@@H](NC(=O)[C@H](Cc1ccccc1)NC(=O)[C@H](CCC(=O)O)NC(=O)[C@H](CCC(N)=O)NC(=O)[C@H](C)NC(=O)[C@H](CCCNC(=N)N)NC(=O)[C@H](CCCCN)NC(=O)C(C)(C)NC(=O)[C@H](CC(=O)O)NC(=O)[C@H](CC(C)C)NC(=O)[C@H](Cc1ccc(O)cc1)NC(=O)[C@H](CCCCN)NC(=O)[C@H](CO)NC(=O)[C@H](Cc1c[nH]cn1)NC(=O)[C@H](CC(=O)O)NC(=O)[C@H](CO)NC(=O)[C@@H](NC(=O)[C@H](Cc1ccccc1)NC(=O)[C@@H](NC(=O)CNC(=O)[C@H](Cc1c[nH]cn1)NC(=O)CNC(=O)[C@@H](N)Cc1ccc(O)cc1)[C@@H](C)O)[C@@H](C)O)C(C)C)C(=O)N[C@@H](CCC(=O)O)C(=O)N[C@@H](CC(=O)O)C(=O)N[C@@H](CCC(=O)O)C(=O)O
B2: the “hGLP1 pEC50 (cAMP)” value in assay [3] is < 9 pEC50.

Consider YSHGTFTSDYSKYLDK(Formula III)ARAQEFVKWLEDEPSSGAPPPS-NH2 (reading uncertain) [Compound B47], for which the “GLP-1R pEC 50” value in assay [1] is < 6 pEC50. Moreover, the “GluR pEC 50” value in assay [2] came out at 10.8 pEC50.

Turning to YSHGTFTSDYSKYLDSARAQEFVKWLEDEPSSK(Formula II)APPPS-NH2 (reading uncertain) [Compound B41], in assay [1], the “GLP-1R pEC 50” value is < 6 pEC50. The “GluR pEC 50” value in assay [2] is 10.6 pEC50.

In the case of YSHGTFTSDYSKYLDSARAQEFVKWLEDEPSSK(Formula III)APPPS-NH2 (reading uncertain) [Compound B45], in assay [1], the “GLP-1R pEC 50” value is < 6 pEC50. In assay [2], the “GluR pEC 50” value was 9.8 pEC50.

Take YSHGTFTSDYSKYLDAARAQEFVKWLEDEPSSGAPPPS [Compound A97]: the “hGLP1 pEC50 (cAMP)” value in assay [3] is < 9 pEC50.

B3: Compound A100 (peptide)
peptide: YSHGTFTSDYSKYLD[Aib]KRAQEFV[Aib]WLEDE-OH
modifications: N-terminus assumed
SMILES: CC(C)C[C@H](NC(=O)[C@H](Cc1ccc(O)cc1)NC(=O)[C@H](CCCCN)NC(=O)[C@H](CO)NC(=O)[C@H](Cc1ccc(O)cc1)NC(=O)[C@H](CC(=O)O)NC(=O)[C@H](CO)NC(=O)[C@@H](NC(=O)[C@H](Cc1ccccc1)NC(=O)[C@@H](NC(=O)CNC(=O)[C@H](Cc1c[nH]cn1)NC(=O)[C@H](CO)NC(=O)[C@@H](N)Cc1ccc(O)cc1)[C@@H](C)O)[C@@H](C)O)C(=O)N[C@@H](CC(=O)O)C(=O)NC(C)(C)C(=O)N[C@@H](CCCCN)C(=O)N[C@@H](CCCNC(=N)N)C(=O)N[C@@H](C)C(=O)N[C@@H](CCC(N)=O)C(=O)N[C@@H](CCC(=O)O)C(=O)N[C@@H](Cc1ccccc1)C(=O)N[C@H](C(=O)NC(C)(C)C(=O)N[C@@H](Cc1c[nH]c2ccccc12)C(=O)N[C@@H](CC(C)C)C(=O)N[C@@H](CCC(=O)O)C(=O)N[C@@H](CC(=O)O)C(=O)N[C@@H](CCC(=O)O)C(=O)O)C(C)C
Regarding B3, the “hGLP1 pEC50 (cAMP)” value in assay [3] is < 9 pEC50.

For the origin of these results see US20180009871A1 (INTARCIA THERAPEUTICS, published 2018).
